Data reported in patent publication US20170002055A1, “Novel peptides and combination of peptides for use in immunotherapy against ovarian cancer and other cancers” (immatics biotechnologies GmbH, priority 2015, published 2017).

Target: HLA-A*02:01 (Homo sapiens, UniProt P04439, D140Y/D185E/D98H/E176V/E277Q/G131W/G231S/I119V/I121R/I166T/I218V/L300P/L318F/N151K/N90K/P208A/P217A/Q86G/Q94H/R138H/R169H/T345S)
Assay: MHC binding assay (UV-ligand exchange, β2m ELISA, peptide exchange yield)
Details: MHC class I binding score; binding to HLA-A*02:01 ranged by peptide exchange yield (UV-ligand exchange, β2m ELISA)
Summary of the method: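 Binding is expressed as peptide exchange yield: stabilized MHC complexes were quantified by β2m ELISA, with a 450 nm TMB read-out on streptavidin-coated plates. Complexes came from UV-ligand exchange, where UV irradiation cleaves a photolabile peptide so the candidate peptide can load.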

Row | Substance | Peptide exchange
1 | 373 (SLLEDKGLAEV; listed as Homo sapiens) [compound 373] | “++” (≧20% = ++)
2 | 374 (FLLQQHLISA; listed as Homo sapiens) [compound 374] | “++” (≧20% = ++)
3 | 375 (SLTETIEGV; listed as Homo sapiens) [compound 375] | “++” (≧20% = ++)
4 | 376 (AMFESSQNVLL; listed as Homo sapiens) [compound 376] | “++” (≧20% = ++)
5 | 377 (FLLDSSASV; listed as Homo sapiens) [compound 377] | “++” (≧20% = ++)
6 | 378 (ALGYFVPYV; listed as Homo sapiens) [compound 378] | “+++” (≧50 = +++)
7 | 379 (IMEGTLTRV; listed as Homo sapiens) [compound 379] | “++” (≧20% = ++)
8 | 380 (TLIEDEIATI; listed as Homo sapiens) [compound 380] | “++” (≧20% = ++)
9 | 381 (FIDEAYVEV; listed as Homo sapiens) [compound 381] | “++” (≧20% = ++)
10 | 382 (ALQNYIKEA; listed as Homo sapiens) [compound 382] | “++” (≧20% = ++)
11 | 383 (ALLELENSVTL; listed as Homo sapiens) [compound 383] | “+++” (≧50 = +++)
12 | 385 (SLLEQGLVEA; listed as Homo sapiens) [compound 385] | “++” (≧20% = ++)
13 | 386 (ILFRYPLTI; listed as Homo sapiens) [compound 386] | “+++” (≧50 = +++)
14 | 387 (ALFQATAEV; listed as Homo sapiens) [compound 387] | “++++” (≧75% = ++++)
15 | 388 (SLTIDGIRYV; listed as Homo sapiens) [compound 388] | “+++” (≧50 = +++)
16 | 389 (LLADVTHLL; listed as Homo sapiens) [compound 389] | “++” (≧20% = ++)
17 | 390 (ALFMKQIYL; listed as Homo sapiens) [compound 390] | “+++” (≧50 = +++)
18 | 391 (YVYPQRLNFV; listed as Homo sapiens) [compound 391] | “+++” (≧50 = +++)
19 | 392 (ALLHPQGFEV; listed as Homo sapiens) [compound 392] | “++” (≧20% = ++)
20 | 393 (GLLDTQTSQVLTA; listed as Homo sapiens) [compound 393] | “++” (≧20% = ++)
21 | 394 (LLAVIGGLVYL; listed as Homo sapiens) [compound 394] | “+++” (≧50 = +++)
22 | 396 (ALLPDLPAL; listed as Homo sapiens) [compound 396] | “+++” (≧50 = +++)
23 | 397 (YLFGERLLEC; listed as Homo sapiens) [compound 397] | “+++” (≧50 = +++)
24 | 398 (KLLEEDGTIITL; listed as Homo sapiens) [compound 398] | “++” (≧20% = ++)
25 | 399 (YLFEPLYHV; listed as Homo sapiens) [compound 399] | “+++” (≧50 = +++)
26 | 400 (SLLTEQDLWTV; listed as Homo sapiens) [compound 400] | “++” (≧20% = ++)

Row | Substance | Peptide exchange
27 | 401 (ILLDDTGLAYI; listed as Homo sapiens) [compound 401] | “+++” (≧50 = +++)
28 | 402 (VLFSGALLGL; listed as Homo sapiens) [compound 402] | “++” (≧20% = ++)
29 | 403 (KLYDRILRV; listed as Homo sapiens) [compound 403] | “++” (≧20% = ++)
30 | 405 (ALYDVFLEV; listed as Homo sapiens) [compound 405] | “++” (≧20% = ++)
31 | 407 (YLMDLINFL; listed as Homo sapiens) [compound 407] | “+++” (≧50 = +++)
32 | 408 (VLDDSIYLV; listed as Homo sapiens) [compound 408] | “++” (≧20% = ++)
33 | 409 (LLDAMNYHL; listed as Homo sapiens) [compound 409] | “++” (≧20% = ++)
34 | 412 (YLDDLNEGVYI; listed as Homo sapiens) [compound 412] | “++” (≧20% = ++)
35 | 426 (RLADKSVLV; listed as Homo sapiens) [compound 426] | “+++” (≧50 = +++)
36 | 427 (ALLPLSPYL; listed as Homo sapiens) [compound 427] | “+++” (≧50 = +++)
37 | 428 (KLGHTDILVGV; listed as Homo sapiens) [compound 428] | “++” (≧20% = ++)
38 | 429 (GLVNDLARV; listed as Homo sapiens) [compound 429] | “++” (≧20% = ++)
39 | 430 (HLYSSIEHLTT; listed as Homo sapiens) [compound 430] | “+++” (≧50 = +++)
40 | 431 (SLVNVVPKL; listed as Homo sapiens) [compound 431] | “++” (≧20% = ++)
41 | 432 (TLIEESAKV; listed as Homo sapiens) [compound 432] | “++” (≧20% = ++)
42 | 433 (AMLNEPWAV; listed as Homo sapiens) [compound 433] | “+++” (≧50 = +++)
43 | 434 (KVSNSGITRV; listed as Homo sapiens) [compound 434] | “++” (≧20% = ++)
44 | 436 (HLAEVSAEV; listed as Homo sapiens) [compound 436] | “+++” (≧50 = +++)
45 | 437 (SMAPGLVIQAV; listed as Homo sapiens) [compound 437] | “+++” (≧50 = +++)
46 | 438 (KLLPLAGLYL; listed as Homo sapiens) [compound 438] | “++++” (≧75% = ++++)
47 | 439 (YLLQEIYGI; listed as Homo sapiens) [compound 439] | “+++” (≧50 = +++)
48 | 440 (ALADGVTMQV; listed as Homo sapiens) [compound 440] | “++” (≧20% = ++)
49 | 441 (ALLENPKMEL; listed as Homo sapiens) [compound 441] | “+++” (≧50 = +++)
50 | 442 (GLLGGGGVLGV; listed as Homo sapiens) [compound 442] | “+++” (≧50 = +++)
51 | 444 (GLLRDEALAEV; listed as Homo sapiens) [compound 444] | “+++” (≧50 = +++)
52 | 447 (QLVPALAKV; listed as Homo sapiens) [compound 447] | “++” (≧20% = ++)

Row | Substance | Peptide exchange
53 | 448 (NLLETKLQL; listed as Homo sapiens) [compound 448] | “+++” (≧50 = +++)
54 | 449 (KLAEGLDIQL; listed as Homo sapiens) [compound 449] | “+++” (≧50 = +++)
55 | 450 (FMIDASVHPTL; listed as Homo sapiens) [compound 450] | “+++” (≧50 = +++)
56 | 451 (LLLLDTVTMQV; listed as Homo sapiens) [compound 451] | “++” (≧20% = ++)
57 | 452 (ILLEHGADPNL; listed as Homo sapiens) [compound 452] | “+++” (≧50 = +++)
58 | 453 (KLLEATSAV; listed as Homo sapiens) [compound 453] | “++” (≧20% = ++)
59 | 455 (SLLKEPQKVQL; listed as Homo sapiens) [compound 455] | “++” (≧20% = ++)
60 | 456 (LLIGHLERV; listed as Homo sapiens) [compound 456] | “+++” (≧50 = +++)
61 | 457 (SLLPGNLVEKV; listed as Homo sapiens) [compound 457] | “+++” (≧50 = +++)
62 | 458 (SLIDKLYNI; listed as Homo sapiens) [compound 458] | “++” (≧20% = ++)
63 | 459 (ALITEVVRL; listed as Homo sapiens) [compound 459] | “++” (≧20% = ++)
64 | 461 (VMFRTPLASV; listed as Homo sapiens) [compound 461] | “++” (≧20% = ++)
65 | 462 (KLAKQPETV; listed as Homo sapiens) [compound 462] | “+++” (≧50 = +++)
66 | 464 (ALNDCIYSV; listed as Homo sapiens) [compound 464] | “+++” (≧50 = +++)
67 | 465 (QLCDLNAEL; listed as Homo sapiens) [compound 465] | “+++” (≧50 = +++)
68 | 466 (VLIANLEKL; listed as Homo sapiens) [compound 466] | “++++” (≧75% = ++++)
69 | 467 (FLAKDFNFL; listed as Homo sapiens) [compound 467] | “+++” (≧50 = +++)
70 | 468 (YLRSVGDGETV; listed as Homo sapiens) [compound 468] | “+++” (≧50 = +++)
71 | 469 (YLASDEITTV; listed as Homo sapiens) [compound 469] | “+++” (≧50 = +++)
72 | 471 (YLYNNMIAKI; listed as Homo sapiens) [compound 471] | “+++” (≧50 = +++)
73 | 472 (KLLEVSDDPQV; listed as Homo sapiens) [compound 472] | “+++” (≧50 = +++)
74 | 473 (AMATESILHFA; listed as Homo sapiens) [compound 473] | “+++” (≧50 = +++)
75 | 474 (YLDPALELGPRNV; listed as Homo sapiens) [compound 474] | “+++” (≧50 = +++)
76 | 475 (LLLNEEALAQI; listed as Homo sapiens) [compound 475] | “+++” (≧50 = +++)
77 | 476 (ALMERTGYSMV; listed as Homo sapiens) [compound 476] | “+++” (≧50 = +++)
78 | 477 (ALLPASGQIAL; listed as Homo sapiens) [compound 477] | “+++” (≧50 = +++)
